The target of the assay is GluA2 flip receptor, unedited at the pore site (Q-containing), wild type (UniProt P19491).
Sequence of UniProt P19491 (P19491 other isoform, or with tags, fused parts or gaps): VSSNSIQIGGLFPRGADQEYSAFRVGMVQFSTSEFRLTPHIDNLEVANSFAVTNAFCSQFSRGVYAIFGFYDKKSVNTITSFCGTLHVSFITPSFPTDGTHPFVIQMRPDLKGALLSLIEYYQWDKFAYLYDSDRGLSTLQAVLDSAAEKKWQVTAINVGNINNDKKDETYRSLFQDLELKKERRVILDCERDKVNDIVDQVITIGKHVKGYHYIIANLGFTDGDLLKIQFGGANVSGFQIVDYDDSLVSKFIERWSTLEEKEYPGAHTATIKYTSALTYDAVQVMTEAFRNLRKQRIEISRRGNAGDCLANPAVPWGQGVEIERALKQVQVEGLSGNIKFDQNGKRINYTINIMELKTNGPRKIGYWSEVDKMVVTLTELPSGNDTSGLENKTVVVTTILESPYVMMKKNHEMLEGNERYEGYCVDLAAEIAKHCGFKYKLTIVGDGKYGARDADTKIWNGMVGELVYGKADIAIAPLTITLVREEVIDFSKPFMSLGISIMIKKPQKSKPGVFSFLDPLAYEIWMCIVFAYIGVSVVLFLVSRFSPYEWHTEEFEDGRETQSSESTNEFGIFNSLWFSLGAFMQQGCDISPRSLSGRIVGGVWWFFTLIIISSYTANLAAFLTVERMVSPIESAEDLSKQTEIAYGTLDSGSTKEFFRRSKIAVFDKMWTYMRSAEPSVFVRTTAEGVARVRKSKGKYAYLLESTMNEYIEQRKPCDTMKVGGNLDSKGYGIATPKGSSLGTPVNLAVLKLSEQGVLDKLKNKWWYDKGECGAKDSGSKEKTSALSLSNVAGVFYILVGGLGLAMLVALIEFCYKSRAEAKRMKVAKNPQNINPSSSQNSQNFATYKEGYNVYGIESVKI

B1: TARP γ2 (Stargazin), mouse, wild type (natural protein)
chain: MGLFDRGVQMLLTTVGAFAAFSLMTIAVGTDYWLYSRGVCKTKSVSENETSKKNEEVMTHSGLWRTCCLEGNFKGLCKQIDHFPEDADYEADTAEYFLRAVRASSIFPILSVILLFMGGLCIAASEFYKTRHNIILSAGIFFVSAGLSNIIGIIVYISANAGDPSKSDSKKNSYSYGWSFYFGALSFIIAEMVGVLAVHMFIDRHKQLRATARATDYLQASAITRIPSYRYRYQRRSRSSSRSTEPSHSRDASPVGVKGFNTLPSTEISMYTLSRDPLKAATTPTATYNSDRDNSFLQVHNCIQKDSKDSLHANTANRRTTPV
In turn, B1 displayed a coupling energy of a thermodynamic cycle (γ2 wild type or L2 GS with GluA2 wild type or GAG/GSG), superactivation during 7 s of 10 mM glutamate of 1.08 kcal/mol.

For the origin of these results see article PMC5599240.
